Measurements: patent US20250049896A1 (Regeneron, published 2025)
Numbering of substitutions follows the chain as printed.

B1: 69307 scFv (VK-VH) (scFv)
scFv: DIQMTQSPSSVSASVGDRVTITCRASQGISSWLAWYQQKPGKAPKLLIYAASSLQSGVPSRFSGSGSGTDFTLTISSLQPEDFATYYCQKADSLPYAFGQGTKLEIKGGGGSGGGGSGGGGSEVQLVESGGGLVQPGGSLRLSCTASGFTFSNYWMTWVRQAPGKGLEWVANIKEDGSEKEYVDSVKGRFTISRDNAKNSLYLQMNSLRGEDTAVYYCARDGEQLVDYYYYYVMDVWGQGTTVTVSS
notes: CHO supernatant; Vk-3xG4S-Vh
B2: 69329 scFv (VK-VH) (scFv)
scFv: B1 scFv with D92N, L94F, A97T, T145A, E181D
notes: CHO supernatant; Vk-3xG4S-Vh
B3: 69323 Fab (Fab, V domains shown)
VH: EVQLVESGGGLVQPGRSLRLSCAASGFTFDDYAMHWVRQAPGKGLEWVSGISWNSGYIGYADSVKGRFTISRDNAENSLHLQMNSLRAEDTALYYCARGGSTLVRGVKGGYYGMDVWGQGTTVTVSS
VL: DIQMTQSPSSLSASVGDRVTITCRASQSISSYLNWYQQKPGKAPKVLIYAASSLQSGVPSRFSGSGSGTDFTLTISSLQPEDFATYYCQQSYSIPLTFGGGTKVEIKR
notes: CHO supernatant
B4: 69326 Fab (Fab, V domains shown)
VH: EVQLVESGGGLVQPGGSLRLSCAVSGFIFSSYEMNWVRQAPGKGLEWVSYISSSGSTIFYADSVKGRFTISRDNAKNSLYLQMNSLRAEDTAVYYCVSGVVLFDVWGQGTMVTVSS
VL: EIVMTQSPATLSVSPGERATLSCRASQSVSSNFAWYQQKPGQAPRLLIYSASSRATGIPVRFSGSGSGTEFTLTISSLQSEDFAVYYCQQYNIWPRTFGQGTKVEIKR
notes: CHO supernatant
B5: 69326 scFv (VK-VH) (scFv)
scFv: EIVMTQSPATLSVSPGERATLSCRASQSVSSNFAWYQQKPGQAPRLLIYSASSRATGIPVRFSGSGSGTEFTLTISSLQSEDFAVYYCQQYNIWPRTFGQGTKVEIKGGGGSGGGGSGGGGSEVQLVESGGGLVQPGGSLRLSCAVSGFIFSSYEMNWVRQAPGKGLEWVSYISSSGSTIFYADSVKGRFTISRDNAKNSLYLQMNSLRAEDTAVYYCVSGVVLFDVWGQGTMVTVSS
notes: CHO supernatant; Vk-3xG4S-Vh
B6: 69326 scFv (VH-VK) (scFv)
chain: EVQLVESGGGLVQPGGSLRLSCAVSGFIFSSYEMNWVRQAPGKGLEWVSYISSSGSTIFYADSVKGRFTISRDNAKNSLYLQMNSLRAEDTAVYYCVSGVVLFDVWGQGTMVTVSSEIVMTQSPATLSVSPGERATLSCRASQSVSSNFAWYQQKPGQAPRLLIYSASSRATGIPVRFSGSGSGTEFTLTISSLQSEDFAVYYCQQYNIWPRTFGQGTKVEIK
B7: 69329 scFv (VH-VK) (scFv)
chain: EVQLVESGGGLVQPGGSLRLSCAASGFTFSNYWMTWVRQAPGKGLEWVANIKEDGSEKDYVDSVKGRFTISRDNAKNSLYLQMNSLRGEDTAVYYCARDGEQLVDYYYYYVMDVWGQGTTVTVSSDIQMTQSPSSVSASVGDRVTITCRASQGISSWLAWYQQKPGKAPKLLIYAASSLQSGVPSRFSGSGSGTDFTLTISSLQPEDFATYYCQKANSFPYTFGQGTKLEIK
B8: 69331 Fab (Fab, V domains shown)
VH: QVQLVESGGGVVQPGRSLRLSCIASGFTFSVYGIHWVRQAPGKGLEWMAVISHDGNIKHYADSVKGRFTISRDNSKNTLYLQINSLRTEDTAVYYCAKDTWNSLDTFDIWGQGTMVTVSS
VL: DIQLTQSPSSLSASVGDRVTITCWASQGISSYLAWYQQKPGKAPKLLIYAASTLQSGVPSRFSGSGSGTEFTLTISSLQPEDFATYYCQQLNSYPLTFGGGTKVEIKR
notes: CHO supernatant
B9: 69331 scFv (VK-VH) (scFv)
scFv: DIQLTQSPSSLSASVGDRVTITCWASQGISSYLAWYQQKPGKAPKLLIYAASTLQSGVPSRFSGSGSGTEFTLTISSLQPEDFATYYCQQLNSYPLTFGGGTKVEIKGGGGSGGGGSGGGGSQVQLVESGGGVVQPGRSLRLSCIASGFTFSVYGIHWVRQAPGKGLEWMAVISHDGNIKHYADSVKGRFTISRDNSKNTLYLQINSLRTEDTAVYYCAKDTWNSLDTFDIWGQGTMVTVSS
notes: CHO supernatant; Vk-3xG4S-Vh

Biological target: T1, Hmm-hTFRC (REGN2431), monomeric human transferrin receptor ectodomain with N-terminal hexahistidine-myc-myc … (human, UniProt P02786 89-760)
T1 construct: also called hmm.hTfR(C89-F763); His-myc-myc-hTFRC ecto
T1 sequence (P02786 other isoform, or with tags, fused parts or gaps): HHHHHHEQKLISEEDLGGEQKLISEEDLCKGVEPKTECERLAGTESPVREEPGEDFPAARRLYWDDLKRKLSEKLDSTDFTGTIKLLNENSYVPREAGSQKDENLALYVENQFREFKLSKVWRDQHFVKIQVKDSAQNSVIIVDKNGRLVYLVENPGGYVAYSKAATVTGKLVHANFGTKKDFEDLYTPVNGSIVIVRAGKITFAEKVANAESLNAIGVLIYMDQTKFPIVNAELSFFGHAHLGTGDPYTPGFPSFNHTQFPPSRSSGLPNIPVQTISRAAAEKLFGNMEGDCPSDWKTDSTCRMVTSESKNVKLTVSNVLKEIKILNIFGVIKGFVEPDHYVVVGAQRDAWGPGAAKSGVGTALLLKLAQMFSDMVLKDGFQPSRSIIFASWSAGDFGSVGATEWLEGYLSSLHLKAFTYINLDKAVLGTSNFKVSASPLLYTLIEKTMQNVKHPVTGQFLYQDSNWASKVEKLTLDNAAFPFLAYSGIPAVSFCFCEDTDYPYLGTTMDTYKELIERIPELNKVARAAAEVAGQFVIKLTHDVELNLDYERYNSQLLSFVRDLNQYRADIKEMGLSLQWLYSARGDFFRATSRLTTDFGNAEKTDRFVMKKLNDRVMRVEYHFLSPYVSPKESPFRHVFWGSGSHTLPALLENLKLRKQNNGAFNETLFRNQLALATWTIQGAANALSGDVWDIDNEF
Assay: blocking ELISA, supernatant; Hmm-hTFRC binding to immobilized human holo-Tf
Method in brief: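 Plates were coated with anti-hTf goat pAb at 2 µg/mL overnight at 4 °C, then loaded with human holo-Tf at 1 µg/mL for 2 h at room temperature. Bound receptor was detected with TMB and absorbance read at 450 nm.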

| % Blocking [%] | Binder |
| --- | --- |
| 12 | B1 |
| 19 | B2 |
| 12 | B3 |
| -2 | B4 |
| 12 | B5 |
| 18 | B6 |
| 25 | B7 |
| 9 | B8 |
| 13 | B9 |
